# PHPP = 3-Phenylpyrazolo[3,4-d]pyrimidine (N-terminal cap)
# What was measured:
# [1] = system: Tyrosinase; test: Tyrosinase activity assay (L-DOPA) in NHEM cells; assay type: cell-based, Human; conditions: for % increase in tyrosinase activity compared to control / Tyrosinase activity: TYROSINASE ACTIVITY table
# Protocol: Culture and maintenance of cell lines: B16F10 cells were cultured in RPMI containing 10% fetal bovine serum, 100 units per millilitre (U/mL) penicillin, 0.1 mg/mL streptomycin, and 0.25 microgram per millilitre (μg/mL) amphotericin B at 37 degrees Celsius in a humidified 95% air/5% CO2 incubator. Drug treatment was done 24 hours after seeding. Cells were harvested 48 hours later and melanin content and tyrosinase activity determined in triplicate. NHEM cells were cultured in DMEM containing 10% fetal bovine serum, 100 units per milliliter (U/mL) penicillin, 0.1 mg/mL streptomycin, and 0.25 microgram per millilitre (μg/mL) amphotericin B at 37 degrees Celsius in a humidified 95% air/5% CO2 incubator. Drug treatment was done 24 hours after seeding. Cells were harvested 48 hours later and melanin content and tyrosinase activity determined in triplicate.
# IS103 was dissolved in water for injection or DMSO to prepare stock solution of about 50 mg/ml. The stock solution was used for preparation of subsequent dilutions in solvent to achieve working dilutions for treatment ranging 0.1 μg/ml to 1000 μg/ml.
# Tyrosinase activity was determined using L-DOPA as a substrate. Briefly, B16F10 and NHEM cells were seeded in a 6-well plate (2×10^4 cells/well) and incubated for overnight. The cells were then treated with or without the test compounds for 46 hours and were washed twice with ice cold PBS and extracted by sonication in 100 μl of 0.1M Tris-HCl buffer (pH 7.2) containing 1% Nonidet P-40, 0.01% SDS, 100 μM phenyl methyl sulfonyl fluoride, and 1 μg/ml aprotinin and then centrifuged at 10,000 g for about 10 minutes at 4° C. The supernatants collected were used for enzyme assay and its protein content was estimated by method of Bradford using BSA as standard. Samples of cell extract supernatant were incubated in duplicate for 1 hour at 37° C. in 1 ml of 0.1M sodium phosphate buffer (pH 7.4) containing 0.1% L-DOPA. The absorbance was then monitored at 450 nm and compared with purified mushroom tyrosinase (Sigma). The standard curve was prepared limiting linearity within the range of experimental value.
# [2] = Stability of IS103 API, long term (Condition 2, −20±5° C.); assay type: physicochemical; conditions: for Internal change in attributes: Appearance / Internal change in attributes: Clarity of solution / Internal change in attributes: Color / Internal change in attributes: Color of solution / Internal change in attributes: Odor / API calculated on the anhydrous basis / Appearance white to off white amorphous powder / Related substances (By HPLC) Any Max Impurity / Related substances (By HPLC) Total Impurity / Solubility Sparingly soluble in water / Water Content (By Karl Fischer-Titrator): −20±5° C.
# Protocol: The purpose of stability testing is to provide evidence on how the quality of a drug substance or drug product varies with time under the influence of a variety of environmental factors such as temperature, humidity, etc. and to establish a re-test period for the drug substance or a shelf life for the drug product and recommended storage conditions. The study was conducted according to the WHO and schedule-Y guidelines.
# The IS103 API is a lyophilized white fluffy powder, and it was filled at sterile condition in glass injection vial which has airlock-rubber capping. This container closure system is same as or simulates the packaging proposed for storage and distribution.
# The following test attributes have been selected according to the above said guidelines: • appearance; odour; colour; colour of solution (when IS103 API is soluble in solvent); clarity of solution; degradation and assessment of container closure system.
# Testing frequency for long term studies have been designed as per schedule Y. The long-term stability studies have been conducted on 1, 3, 6, 9, 12, 18, 24 and 36 months.
# The studies were conducted under appropriate storage conditions (with appropriate tolerances) that test IS103 API thermal stability and its sensitivity to moisture. The IS103 API is intended for storage for 36 months. Accordingly, long term stability studies were done for 36 months. The details of the storage conditions have been furnished hereunder.
substance,measurement,setting,value
PHPP-Tyr-Arg-Ser-Arg-Lys-Tyr-Ser-Ser-Trp-Tyr-NH2 ({PHPP}-YRSRKYSSWY-NH2) [IS103],increase in Tyrosinase activity when compared to control,"[1]; NHEM CELLS, 250 μg/mL",55.67%
same,effect on tyrosinase activity (FIG. 7),"[1]; NHEM cells, different concentrations, about 48 hours",increased tyrosinase activity
same,% increase in tyrosinase activity compared to control,"[1]; NHEM CELLS, 0.1 μg/mL",−0.67%
same,Tyrosinase activity,"[1]; NHEM CELLS, 0.1 μg/mL",13.7 ± 1.24
same,% increase in tyrosinase activity compared to control,"[1]; NHEM CELLS, 1 μg/mL",3.67%
same,Tyrosinase activity,"[1]; NHEM CELLS, 1 μg/mL",18.0 ± 3.30
same,% increase in tyrosinase activity compared to control,"[1]; NHEM CELLS, 10 μg/mL",10.67%
same,Tyrosinase activity,"[1]; NHEM CELLS, 10 μg/mL",25.0 ± 0.80
same,% increase in tyrosinase activity compared to control,"[1]; NHEM CELLS, 50 μg/mL",22.67%
same,Tyrosinase activity,"[1]; NHEM CELLS, 50 μg/mL",37.0 ± 3.00
same,% increase in tyrosinase activity compared to control,"[1]; NHEM CELLS, 100 μg/mL",45.33%
same,Tyrosinase activity,"[1]; NHEM CELLS, 100 μg/mL",59.7 ± 1.90
same,% increase in tyrosinase activity compared to control,"[1]; NHEM CELLS, 250 μg/mL",55.67%
same,Tyrosinase activity,"[1]; NHEM CELLS, 250 μg/mL",70.0 ± 2.20
same,% increase in tyrosinase activity compared to control,"[1]; NHEM CELLS, 500 μg/mL",61%
same,Tyrosinase activity,"[1]; NHEM CELLS, 500 μg/mL",75.3 ± 2.50
same,% increase in tyrosinase activity compared to control,"[1]; NHEM CELLS, 1000 μg/mL",61%
same,Tyrosinase activity,"[1]; NHEM CELLS, 1000 μg/mL",75.3 ± 2.60
same,found to be stable for,[2]; long term stability condition (of −20±5° C.),36 months
same,Internal change in attributes: Appearance,[2]; 1st month,No change
same,Internal change in attributes: Clarity of solution,[2]; 1st month,No change
same,Internal change in attributes: Color,[2]; 1st month,No change
same,Internal change in attributes: Color of solution,[2]; 1st month,No change
same,Internal change in attributes: Odor,[2]; 1st month,No change
same,API calculated on the anhydrous basis,[2]; 3 M,99.51%
same,Appearance white to off white amorphous powder,[2]; 3 M,White
same,Related substances (By HPLC) Any Max Impurity,[2]; 3 M,0.22%
same,Related substances (By HPLC) Total Impurity,[2]; 3 M,0.37%
same,Solubility Sparingly soluble in water,[2]; 3 M,Complies
same,Water Content (By Karl Fischer-Titrator),[2]; 3 M,4.06% w/w
same,Internal change in attributes: Appearance,[2]; 3rd month,No change
same,Internal change in attributes: Clarity of solution,[2]; 3rd month,No change
same,Internal change in attributes: Color,[2]; 3rd month,No change
same,Internal change in attributes: Color of solution,[2]; 3rd month,No change
same,Internal change in attributes: Odor,[2]; 3rd month,No change
same,API calculated on the anhydrous basis,[2]; 12 M,99.11%
same,Appearance white to off white amorphous powder,[2]; 12 M,White
same,Related substances (By HPLC) Any Max Impurity,[2]; 12 M,0.36%
same,Related substances (By HPLC) Total Impurity,[2]; 12 M,0.44%
same,Solubility Sparingly soluble in water,[2]; 12 M,Complies
same,Water Content (By Karl Fischer-Titrator),[2]; 12 M,4.45% w/w
same,Internal change in attributes: Appearance,[2]; 12th month,No change
same,Internal change in attributes: Clarity of solution,[2]; 12th month,No change
same,Internal change in attributes: Color,[2]; 12th month,No change
same,Internal change in attributes: Color of solution,[2]; 12th month,No change
same,Internal change in attributes: Odor,[2]; 12th month,No change
same,API calculated on the anhydrous basis,[2]; 18 M,99.03%
same,Appearance white to off white amorphous powder,[2]; 18 M,White
same,Related substances (By HPLC) Any Max Impurity,[2]; 18 M,0.62%
same,Related substances (By HPLC) Total Impurity,[2]; 18 M,0.62%
same,Solubility Sparingly soluble in water,[2]; 18 M,Complies
same,Water Content (By Karl Fischer-Titrator),[2]; 18 M,4.54% w/w
same,Internal change in attributes: Appearance,[2]; 18th month,No change
same,Internal change in attributes: Clarity of solution,[2]; 18th month,No change
same,Internal change in attributes: Color,[2]; 18th month,No change
same,Internal change in attributes: Color of solution,[2]; 18th month,No change
same,Internal change in attributes: Odor,[2]; 18th month,No change
same,API calculated on the anhydrous basis,[2]; 24 M,98.95%
same,Appearance white to off white amorphous powder,[2]; 24 M,White
same,Related substances (By HPLC) Any Max Impurity,[2]; 24 M,0.60%
same,Related substances (By HPLC) Total Impurity,[2]; 24 M,0.82%
same,Solubility Sparingly soluble in water,[2]; 24 M,Complies
same,Water Content (By Karl Fischer-Titrator),[2]; 24 M,4.61% w/w
same,Internal change in attributes: Appearance,[2]; 24th month,No change
same,Internal change in attributes: Clarity of solution,[2]; 24th month,No change
same,Internal change in attributes: Color,[2]; 24th month,No change
same,Internal change in attributes: Color of solution,[2]; 24th month,No change
same,Internal change in attributes: Odor,[2]; 24th month,No change
same,API calculated on the anhydrous basis,[2]; 36 M,98.73%
same,Appearance white to off white amorphous powder,[2]; 36 M,White
same,Related substances (By HPLC) Any Max Impurity,[2]; 36 M,0.84%
same,Related substances (By HPLC) Total Impurity,[2]; 36 M,0.97%
same,Solubility Sparingly soluble in water,[2]; 36 M,Complies
same,Water Content (By Karl Fischer-Titrator),[2]; 36 M,4.56% w/w
same,Internal change in attributes: Appearance,[2]; 36th month,No change
same,Internal change in attributes: Clarity of solution,[2]; 36th month,No change
same,Internal change in attributes: Color,[2]; 36th month,No change
same,Internal change in attributes: Color of solution,[2]; 36th month,No change
same,Internal change in attributes: Odor,[2]; 36th month,No change
same,API calculated on the anhydrous basis,[2]; Initial,99.73%
same,Appearance white to off white amorphous powder,[2]; Initial,White
same,Related substances (By HPLC) Any Max Impurity,[2]; Initial,0.14%
same,Related substances (By HPLC) Total Impurity,[2]; Initial,0.32%
same,Solubility Sparingly soluble in water,[2]; Initial,Complies
same,Water Content (By Karl Fischer-Titrator),[2]; Initial,3.91% w/w

# Source: patent publication US20250326792A1, “A FORMULATION FOR TREATMENT OF PIGMENTARY DISORDERS” (priority 2022, published 2025)
